Test results reported in patent US20260258115A1 (MAPP BIOPHARMACEUTICAL, published 2026).

Experiments:
[1] = biological target: RSV prefusion F (preF), subtype B (respiratory syncytial virus, subtype B); assay: BLI, IgG
[2] = biological target: T1, RSV postfusion F (postF), subtype A (respiratory syncytial virus, subtype A, UniProt P03420 26-513); assay: BLI, IgG
T1 construct: also called F ΔFP; Postfusion subtype A

[3] = biological target: RSV prefusion F (preF), subtype A (respiratory syncytial virus, subtype A, UniProt P03420 26-513); assay: BLI, IgG
[4] = biological target: RSV fusion glycoprotein (RSV F) on RSV-A2 virus (respiratory syncytial virus, UniProt P03420 26-574); assay: cell-based or functional assay

| Binder | Kd [1] [pM] | binding result [2] | Kd [3] [pM] | Neutralization IC50 (RSV subtype A) [4] [µg/mL] | Kd [2] [pM] |
| --- | --- | --- | --- | --- | --- |
| ADI-21050 (antibody, V domains shown) VH: QVQLVQSGAEVKKPGASVKVSCTASGYTFANNGISWVRQAPGQGLEWMGWISAYNGNTKYAQTVQGRVTLTTDTSTSTAYMELRSLTSDDTAVYYCAREMGVDAAATFDYWGQGTLVTVSS VL: EIVMTQSPLFLSVTLGQPASISCRSSQSLVYSDTNTYLTWFQQRPGQSPRRLIYKVSNRDSGVPDRFSGSGSGTYFTLKISRVEAEDIGVYYCMQAIHWPRTFGQGTKLEIK | 323 | no binding | 362 | – | – |
| ADI-21051 (antibody, V domains shown) VH: QVQLVESGPGLVRPSQTLSLTCNVSGDFISRGTYYWSWIRQSAGKGLEWIGRIYTSGITDYSPSLKSRVTISVDTSKNQFFLKLASVTAADTAVYYCARGRGYYDSPWGQGTLVTVSS VL: ETTLTQSPATLSLSPGERATLSCRASESVSTFLGWYQQKPGQAPRLLIYDASNRASGVPARFSGSGSGTDFTLTISSLEPEDFAVYYCQLRNKWLTFGPGTKVDIK | 335 | no binding | 292 | – | – |
| ADI-41357 (antibody, V domains shown) VH: EVQLVESGGGLVQPGGSLRLSCAASGFTFSTYGMNWVRQAPGKGLEWVSYIGGSGRIIYYADSVKGRFTISRDNAKNSLYLQMNSLRAEDTAVYYCARDQHIVLVTGSTPDYWGQGTLVTVSS VL: EIVLTQSPSSLSASVGDRVTITCRASHAISNYLAWFQQKPGKAPKSLIYAASTLQSGVPSKFSGSGSGTDFTLTISSLQPEDFATYYCQQYSSYPLTFGGGTKVEIK | – | – | – | > 25 | – |
| ADI-21030 (antibody, V domains shown) VH: EVQLVESGGGLVKPGGSLRLSCAASGFKFSTYYMSWIRQAPGKGLEWVSNISGGSSYSNHADSVKGRFTISRDNAKNSLYLEMNSLRAEDTAVYYCAREDLMGVSGLAYFEYWGQGILVTVSS VL: QPVLTQPPSVSGAPGQRVTISCTGRSSNIGAGYDVNWYKQLPGAVPKVLIYGNTNRPSGVPDRFSGSKSGNSASLAITGLQAEDEADYYCQSYDRNLGYVFGTGTKLTVL | 301 | no binding | 257 | – | – |
| ADI-41351 (antibody, V domains shown) VH: QVQLVQSGGGLVQPGGSLRLSCSASGFTFSSKSMHWVRQAPGKGLEYVSAIRSDGVSTYYGDSVKGRFTVSRDNAKNTVYLRMSSLRREDTAVYYCVKGPYGDFQYNWFDTWGQGTLVTVSS VL: not shown | – | – | – | 0.149 | – |
| ADI-21029 (antibody, V domains shown) VH: QVQLVQSGAEVRKPGESLKISCKASGYSFTNYWIGWVRQMPGKGLEWMGIVYPADSHPVYSPSFQGQVTFSTDKSINTAYLQWSSLKASDTAMYFCARRDGGTDYLSDAFDIWGQGTMVTVSS VL: DIVMTQSPSSLSASVGDRVTITCRTSQSIRRYLNWYQQKPGKAPKLLIYAASSLQSGVPSRFSGSGSGTDFTLTISSLQPEDFATYYCQQSYSTPNTFGQGTKVEIK | 8380 | no binding | 3770 | – | – |
| ADI-21063 (antibody, V domains shown) VH: EVQLVESGGGLVQPGGSLRLSCSASGFTFRTYVMQWVRQAPGKGLEYVSAISSDGGSTDYADSVKGRFTVSRDNSKNTLYLQMSSLRAEDTAVYYCVKRGEGGNDYLYYYMDVWGKGTTVTVSS VL: DIQVTQSPSSLSASVGDRVTITCRASQSITNYLNWYQQKPGKAPKVLIYAASSLQSGVPSRFSGSGSGTDFTLTISSLQPEDFATYYCQQSYLRPPTFGGGTKVEIK | 777 | no binding | 834 | – | – |
| ADI-21044 (antibody, V domains shown) VH: QVQLVQSGAELKKPGESLKISCKTSGYTFANYWIGWVRQMPGKGLEWMGIIYPGDSDTRYSPSFQGQVTFSADKSINSAYLQWHSLKASDSAIYYCARRFSPDYSDGAAPPTLSDAFDVWGQGTTVTVSS VL: DIVMTQSPSSLSASVGDRVTITCRASQNINIYLNWYQQKPGKAPKLLIYAASTLQSGVPSRFSGSGSATDFTLTISSLQPEDFATYYCQQSYRTPNDFGRGTKVDIK | 5850 | no binding | 4510 | – | – |
| ADI-21059 (antibody, V domains shown) VH: QVQLVQSGAEVKRPGDSLKISCKGSGYSFTTSWIGWVRQVPGKGLEWMGIIYPGDSNTVYGPSLQGQVTISADKSTNTAYLQWSSLKASDTAMYYCARRDGGTDYLSDAFDIWGQGTFVTVSS VL: DIQMTQSPSSLSASVGDRVTITCRTSQNIVIYLNWYQQKPGKAPKLLIFAASSLPSGVPSRFSGSGSGTDFTLTISSLQPEDVATYYCQQSYNTPGTFGQGTKVDIK | 9430 | no binding | 3050 | – | – |
| ADI-21052 (antibody, V domains shown, also called Ab 300) VH: QVQLVQSGAEVKKPGASVKVSCKASGYTFTSYGISWVRQAPGQGLEWMGWISAYNGNTNYAQNLQGRVTMTTDTSTSTAYMELRSLRSDDTAMYYCARDAFSRVGYWYFDLWGRGTLVTVSS VL: SYELTQPPSVSVAPGQAARITCGGNNIGSKTVHWYQQKPSQAPVLVVYDDSDRPSGIPERFSGSNSGNTATLTISRVEAGDEADYYCQVWDSSGDHPVFGGGTKLTVL | 110 | – | 126 | – | 18400 |
| ADI-21045 (antibody, V domains shown) VH: EVQLVESGGGLVKPGGSLRLSCLASGFKFRSYSMNWVRQAPGTGLVWVASISASSSFIFYADSLKGRFTISRDNDKNSLYLQMNSLTVEDTAVYYCVRDMSGISSGGKTFDYWGQGTLVTVSS VL: QSVLTQPPSVSGAPGQRVTISCTGSSSNLGAGYDVQWYQQLPGTAPKLLIYGNNNRPSGVPDRFSGSKSGTSASLAITGLRAEDEADYYCQSYDTSPVFGGGTKLTVL | 596 | no binding | 456 | – | – |
| ADI-21025 (antibody, V domains shown) VH: EVQLVESGGGLVRPGGSLRLSCEASGLKLSGYSMNWVRQAPGKGLEWVSSISASSSYIHYADSLKGRFTISRDNAKNSLYLQMNSLRAEDTAVYYCVASWLTPGWFDPWGQGTLVTVSS VL: QPVLTQPPSVSGAPGQTVTISCTGSSSNIGAGYDVHWYQQLPGTAPKLLIYGNTNRPSGVPDRFSGSKSGTSASLAVTGLQAEDEGDYYCQSYDSSLSGSAFGGGTKLTVL | 295 | no binding | 242 | – | – |
| ADI-21021 (antibody, V domains shown, also called Ab 270) VH: QVQLQQWGAGLLKPSETLSLTCAVHGGSFSGFYWSWIRQSPGKGLEWIAEINDSGNTNHNPSLKSRVTISIDTSKNQFSLNVSSVTAADTAVYYCAKNGGGHHYVGTLRFRSRAFDIWGQGTMVTVSS VL: EIVMTQSPSTLSASVGDRVTITCRASQSIGNRLAWYQQKPGKAPKLLISLASGLETGVPSRFSGSGSGTEFTLTITSLQPDDFATYYCQQYSSYGTFGQGTKLEIK | 4500 | no binding | 2550 | – | – |
| ADI-21038 (antibody, V domains shown) VH: QVQLVQSGAEVKKPGESLKISCQGFGFSFTSYWIGWVRQTPGKGLEWMGTIYPGDSETRKSPSIQGQVTFSADRSISTAYLQWSGLTASDTAVYYCARLKGGWGTTMAGIRDYFYYGLDVWGQGTTVTVSS VL: EIVLTQSPGTLSLSPGERATLSCRASQSVSSSYLAWYQQKPGQAPRLLIYGASSRATGIPDRFTGSGSGTDFTLTISRLEPEDFAVYYCQQYATSLGGFTFGPGTKVDIK | 16000 | – | 2930 | – | 1450 |
| ADI-21027 (antibody, V domains shown) VH: QVQLQESGPGLVKPSGTLSLTCVVSGGSIRSHNYWTWVRQPPGKGLEWIGEIYHSGNTNYNPSLKSRVTLSIDKSKNVFSLRLNSVTAADTAVYYCVGGGPFAPYYFENWGQGTLVTVSS VL: QSVLTQPPSVSGAPGQRVTISCTGSSSNIGAGYAVHWYHQLPGTAPKLLIYDNNNRPSGVPDRFSGSKSGSSASLAITGLQAEDEADYYCQSYDRSLSGYVFGTGTKLTVL | 340 | no binding | 296 | – | – |
| ADI-21033 (antibody, V domains shown) VH: QVQLVQSGAEVRKPGDSLKISCKFSENIFTTYYWTGWVRQMPGRGLEWMGIIFPGDSDTRYSPSFQGHVTISVDKSIATAFLQWSSLKASDSAMYYCARAKYEGSFDMWGQGTMVTVSS VL: DIQVTQSPSSLSASVGDRVSITCQASQDIRNRLNWYQQKPGKAPKLLIYDASILETGVPSRFSGSGSGTDFTFSISSLQPEDFATYYCQQYDSFSLFTFGPGTKVEIK | 1400 | no binding | 193 | – | – |
| ADI-21023 (antibody, V domains shown) VH: EVQLVESGGGLVKPGGSLRLSCAASGFRFSSYGMHWVRQAPGRGLEWVSSITAGSSYMDYADSVKGRFSISRDNAKTSLYLQMNSLRAEDTAIYYCARENYDTGRGLNWFDPWGQGTLVTVSS VL: QSVVTQPPSVSGAPGQRVTISCTGSSSNIGAGYDVHWYRQLPGTAPEVLIYGNNNRPSGVPDRFSGSKTGTSASLAITGLLAEDGADYYCQSYDRSQLWVFGGGTQLTVP | 316 | no binding | 264 | – | – |
| ADI-21034 (antibody, V domains shown) VH: QVQLQQSGAEVKKPGESLTISCKGSGYSFGNYWISWVRQMPGKGLEWMGRIDPSDSYVNYSPSFQGNVTMSVDKSSSTAYLQWSSLKASDTAMYYCARLAGYSTLWGQGTLVTVSS VL: EIVLTQSPGTLSLSPGERATLSCRASQSFGSIYLAWYQQKPGQAPRLLIYGTSSRATGIPDRFSGSGSGTDFTLTIRRLEPEDFAVYYCLYYGSSPGATFGPGTKVDIK | 174 | no binding | 145 | – | – |
| ADI-41353 (antibody, V domains shown) VH: EVQLVESGVEVKKPGESLKISCRGSGYSFHNYWIAWVRQKPGKGLEYMGTIYVDDSDTIYSPSFQGEVTISADKSINTAYLQWNSLKASDTANYYCARQMDFYFDVWGRGTLVTVSS VL: SYELTQPPSVSVSPGQTARITCSGDPLPRESAYWYQQKPGQAPVVVIFNDIERPLGIPERFSGSRSGTTVTLTISGAQAEDEADYYCQSADSRKTFVFGSGTKLTVL | – | – | – | > 25 | – |
